Laboratory results from PMC2821902 (Biochemistry, 2009).
Positions count from the first letter of the chain named. Read-outs that look alike come from different tables or passages of the source.

What was measured:
[1] = target: Dynein light chain LC8 (wild type) (UniProt Q24117); test: NMR; details: cited from earlier work
[2] = target: the molecule itself
[3] = target: the molecule itself; test: NMR NZ-exchange spectroscopy
[4] = target: the molecule itself; test: NMR HSQC peak intensities of monomer and dimer signals in slow exchange
[5] = target: the molecule itself; remark: listed apart in the source
[6] = target: the molecule itself; test: NMR NZ-exchange spectroscopy; remark: listed apart in the source

Molecule: Dynein light chain LC8 (wild type)
- KD ([1]; pH high pH (limit (so in the source))): < 1 µM
- pKa, His55 of LC8 (dimer) ([1]; pH): < 4.5 pH units
- pKa, His55 of LC8 (monomer) ([1]; pH): 6.5 pH units

B1: LC8 Ser88Glu mutant (phosphomimetic) (natural protein)
chain: MSDRKAVIKNADMSEEMQQDAVDCATQALEKYNIEKDIAAYIKKEFDKKYNPTWHCIVGRNFGSYVTHETRHFIYFYLGQVAILLFKEG
- KD of the protonation state His55+/His55+, Glu88/Glu88 (from the model) [2]: 25000 µM
- KD of the protonation state His55+/His55+, Glu88/Glu88− (from the model) [2]: 110000 µM
- KD of the protonation state His55+/His55+, Glu88−/Glu88− (from the model) [2]: 1.8e+07 mM
- KD of the protonation state His55/His55+, Glu88/Glu88 (from the model) [2]: 17 µM
- KD of the protonation state His55/His55+, Glu88/Glu88− (from the model) [2]: 6800 µM
- KD of the protonation state His55/His55+, Glu88−/Glu88− (from the model) [2]: 12000 mM
- KD of the protonation state His55/His55, Glu88/Glu88 (from the model) [2]: 0.071 µM
- KD of the protonation state His55/His55, Glu88/Glu88− (from the model) [2]: 28 µM
- koff [3]: 1.9 to 5.7 s⁻¹
- kon [3]: 1200 to 3000 M⁻¹ s⁻¹
- Kd [4]: 930 µM

B2: wild-type dynein light chain LC8 (natural protein)
chain: B1 chain with E88S
- KD at neutral pH [5]: < 0.1 µM
- KD of the protonation state His55+/His55+ (from the model) [2]: 21000 µM
- KD of the protonation state His55/His55 (from the model) [2]: 0.06 µM
- KD of the protonation state His55/His55+ (from the model) [2]: 14 µM
- koff [6]: 0.05 to 0.24 s⁻¹
- kon [6]: 1000 to 3000 M⁻¹ s⁻¹
